US20220298231A1
Blank lines part the entries; values can stand above or below the binder they belong to.

Legend:
Conditions in all cases: remark: other sources report otherwise
[1] = target: human full-length alpha-synuclein (human), P37840; experiment: SPR, mAb captured; alpha-synuclein monomers
[2] = target: alpha-synuclein fibrils (Homo sapiens (Human)), P37840; experiment: SPR, mAb captured; alpha-synuclein fibrils
[3] = target: human full-length alpha-synuclein (human), P37840; experiment: SPR, mAb captured, steady-state fit
[4] = target: human full-length alpha-synuclein (human), P37840; experiment: SPR, 100 nM monomer, relative to chimeric
[5] = target: alpha-synuclein fibrils (Homo sapiens (Human)), P37840; experiment: SPR, 450 nM aggregates, relative to chimeric

koff [1]: 0.0226 s⁻¹
B1: ACI-7067-1113D10-Ab1 (antibody, V domains shown)
VH: EVQLVESGGGLVQPKGSLKLSCAASGFTFNTYALHWVRQAPGKGLEWVARIRSKSSNYATYYADSVKDRFTISRDDSQSMLYLQMNNLKTEDTGMYYCVRGGVSPFDYWGQGTTLTVSS
VL: QIVLTQSPAIMSASPGEKVTMTCSASSSVSYMHWYQQKSGTSPKRWIYDTSKLASGVPARFSGSGSGTSYSLTISSMEAEDSATYYCQQWSNNPPTFGGGTKLEIK

koff [2]: < 1e-05 s⁻¹ | kon [2]: 9450 M⁻¹ s⁻¹
B2: ACI-7079-2503C6-Ab1 (antibody, V domains shown)
VH: DVQLQESGPGLVKPSQSLSLTCSVTGYSITSGYYWNWIRLFPGNKLEWLGYINYDGSNNFNPSLKNRISITRDTSKNQFFLKLNSVTSEDTATYFCLRGDWDWGQGTLVTVSA
VL: not shown

Kd [3]: 54.5 nM | Relative koff [4]: 1 | Relative koff [5]: 1
B3: cACI-7067-1101C8-Ab2 (antibody, V domains shown)
VH: EVQLVESGGGLVQPKGSLKLSCAASGFSFNIYAMNWVRQAPGKGLEWVARIRSKSNNYATYYADSVKDRFTISRADSESMLYLQMNNLKTEDTAMYYCVRVGLRFYAMDYWGQGTSVTVSS
VL: DVLMTQTPLSLPVSLGDQASISCRSSQSIVHSNGNTYLEWYLQKPGQSPKLLIYKVSNRFSGVPDRFSGSGSGTDFTLKISRVEAEDLGVYYCFQGSQGPLTFGAGTKLELK
